In this series the test system is Renilla luciferase RNA. Kind of series: Barcoded aptazyme variant library screen: un-cleaved Renilla luciferase RNA by barcode read counts, HEK293-T cells. Format: cell-based. Conditions: un-cleaved Renilla luciferase RNA, HEK293-T cells cultured with 1 mM theophylline (ON) over without theophylline (OFF); barcode read counts, triplicate. A digest of the protocol:
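Aptazyme variants (seven theophylline aptamers inserted after each T3H48 ribozyme nucleotide, 9-nt barcoded) cloned into the 3′ UTR of Renilla luciferase in psiCHECK-2; cells cultured ± theophylline, in triplicate. RNA and DNA barcodes amplified and sequenced; normalized read counts gave un-cleaved RNA fraction and ON/OFF fold-change.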

Where a chain is given by its changes, count along the chain named.

B1: RA141 (nucleic acid)
DNA: GCGCGTCCTGGATTCGCGGAAACGCGTACATCCGGAATACCAGCATCGTCTTGATGCCCTTGGAAGTCCGGCCAGCTGACGAGTCCCAAATAGGACGAAACGCGC
modifications: expressed or natural sequence
Turning to B1, the “Fold change in RNA expression between the ON state and the OFF state” value (shortened to “Fold change”) is 1.4 fold.

B2: RA136 (nucleic acid)
DNA: GCGCGTCCTGGATTCGCGGAAACGCGTACATCCAGCTGACGAGTCCCAAATAGGACGAAACGGAGAATACCAGCATCGTCTTGATGCCCTTGGAAGTCTCCGC
modifications: expressed or natural sequence
B2: the “Fold change” value came to 1.4 fold.

B3: RA126 (nucleic acid)
DNA: GCGCGTCCTGGATTCGCGGAAACGCGTACAAGAATACCAGCATCGTCTTGATGCCCTTGGAAGTCTTCCAGCTGACGAGTCCCAAATAGGACGAAACGCGC
modifications: expressed or natural sequence
As for B3, the “Fold change” value is on record as 1.5 fold.

B4: RA131 (nucleic acid)
DNA: GCGCGTCCTAGAATACCAGCATCGTCTTGATGCCCTTGGAAGTCTGGATTCGCGGAAACGCGTACATCCAGCTGACGAGTCCCAAATAGGACGAAACGCGC
modifications: expressed or natural sequence
B4: the “Fold change” value is 1.4 fold.

B5: RA127 (nucleic acid)
DNA: GCGCGTCCTGGATTCGCGGAAACGCGTACATCCAGCTGACGAGTCCCAAATAGGACGAAACGCGCCGGAATACCAGCATCGTCTTGATGCCCTTGGAAGTCCGGC
modifications: expressed or natural sequence
Turning to B5, the “Fold change” value was determined as 1.4 fold.

B6: RA123 (nucleic acid)
DNA: GCGCGTCCTGGATTCGCGGAAACGCGTCGGAATACCAGCATCGTCTTGATGCCCTTGGAAGTCCGACATCCAGCTGACGAGTCCCAAATAGGACGAAACGCGC
modifications: expressed or natural sequence
For B6, the “Fold change” value was determined as 1.5 fold.

B7: RA137 (nucleic acid)
DNA: GCGCGTCCTGGATTCGCGGAAACGCGTACGAGAATACCAGCATCGTCTTGATGCCCTTGGAAGTCTCATCCAGCTGACGAGTCCCAAATAGGACGAAACGCGC
modifications: expressed or natural sequence
On to B7, for which the “Fold change” value is 1.4 fold.

B8: RA138 (nucleic acid)
DNA: GCGCGGAATACCAGCATCGTCTTGATGCCCTTGGAAGTCCGCGTCCTGGATTCGCGGAAACGCGTACATCCAGCTGACGAGTCCCAAATAGGACGAAACGCGC
modifications: expressed or natural sequence
Take B8: the “Fold change” value turned out to be 1.4 fold.

B9: RA135 (nucleic acid)
DNA: GCGCGTCCTGGATTCGCGGAAACGAGTGATACCAGCATCGTCTTGATGCCCTTGGCAGCACTCGTACATCCAGCTGACGAGTCCCAAATAGGACGAAACGCGC
modifications: expressed or natural sequence
For B9, the “Fold change” value was determined as 1.4 fold.

B10: RA128 (nucleic acid)
DNA: GCGCGTCCTGGATTCGCGGAAACGCGTAAGTGATACCAGCATCGTCTTGATGCCCTTGGCAGCACTCATCCAGCTGACGAGTCCCAAATAGGACGAAACGCGC
modifications: expressed or natural sequence
B10: the “Fold change” value is 1.4 fold.

B11: RA125 (nucleic acid)
DNA: GCGCGTCCTGGATTCGCGGAAACGCGTACATCCAGCTGACGAGTCCCGGAATACCAGCATCGTCTTGATGCCCTTGGAAGTCCGGCCAAATAGGACGAAACGCGC
modifications: expressed or natural sequence
In the case of B11, the “Fold change” value was found to be 1.5 fold.

B12: RA132 (nucleic acid)
DNA: GCGCGTCCTGGATTCGCGGAATACCAGCATCGTCTTGATGCCCTTGGAAGTCCGGAAACGCGTACATCCAGCTGACGAGTCCCAAATAGGACGAAACGCGC
modifications: expressed or natural sequence
Turning to B12, the “Fold change” value worked out at 1.4 fold.

B13: RA124 (nucleic acid)
DNA: GCGCGTCCTGGATTCGCGGAAACGCGTACATCCAGCTGACGCGGAATACCAGCATCGTCTTGATGCCCTTGGAAGTCCGAGTCCCAAATAGGACGAAACGCGC
modifications: expressed or natural sequence
In the case of B13, the “Fold change” value was determined as 1.5 fold.

B14: RA143 (nucleic acid)
DNA: B13 DNA with C42A, G44T, A45G, A73C, T76C, C77A, G79T
modifications: expressed or natural sequence
Consider B14, for which the “Fold change” value was 1.4 fold.

B15: RA140 (nucleic acid)
DNA: GCGCGTCCTGGATTCGCGGAAACGCGTACATCCAGCTGACGAGTCCGGAATACCAGCATCGTCTTGATGCCCTTGGAAGTCCGGCCCAAATAGGACGAAACGCGC
modifications: expressed or natural sequence
For the molecule B15, the “Fold change” value worked out at 1.4 fold.

B16: RA119 (nucleic acid)
DNA: GCGCGTCCTGGATTCGCGGAAACGCGTACATCCAGAGAATACCAGCATCGTCTTGATGCCCTTGGAAGTCTCTGACGAGTCCCAAATAGGACGAAACGCGC
modifications: expressed or natural sequence
Take B16: the “Fold change” value is given as 1.5 fold.

B17: RA133 (nucleic acid)
DNA: GCGCGAGAATACCAGCATCGTCTTGATGCCCTTGGAAGTCTCGTCCTGGATTCGCGGAAACGCGTACATCCAGCTGACGAGTCCCAAATAGGACGAAACGCGC
modifications: expressed or natural sequence
As for B17, the “Fold change” value came to 1.4 fold.

B18: RA129 (nucleic acid)
DNA: GCGCGTCCTGGATTCCACTTCGGGTACATCCAGCTGACGAGTCCCAAATAGGACGAAACGCGC
modifications: expressed or natural sequence
As for B18, the “Fold change” value is 1.4 fold.

B19: RA142 (nucleic acid)
DNA: GCGCGTCCTGGATTCGCGGAAACGCGTACGGAATACCAGCATCGTCTTGATGCCCTTGGAAGTCCATCCAGCTGACGAGTCCCAAATAGGACGAAACGCGC
modifications: expressed or natural sequence
Regarding B19, the “Fold change” value turned out to be 1.4 fold.

B20: RA122 (nucleic acid)
DNA: GCGCGTCCTGGATTCGCGGAAACGCGTACATCCAGCTGACGAGTCCCAAATAGGACGAGAATACCAGCATCGTCTTGATGCCCTTGGAAGTCTCGAAACGCGC
modifications: expressed or natural sequence
With B20, the “Fold change” value turned out to be 1.5 fold.

B21: RA121 (nucleic acid)
DNA: GCGCGTCCTGGATTCGAGAATACCAGCATCGTCTTGATGCCCTTGGAAGTCTCGCGGAAACGCGTACATCCAGCTGACGAGTCCCAAATAGGACGAAACGCGC
modifications: expressed or natural sequence
As to B21, the “Fold change” value is listed as 1.5 fold.

B22: RA120 (nucleic acid)
DNA: GCGCGTCCCCGGAATACCAGCATCGTCTTGATGCCCTTGGAAGTCCGGTGGATTCGCGGAAACGCGTACATCCAGCTGACGAGTCCCAAATAGGACGAAACGCGC
modifications: expressed or natural sequence
Regarding B22, the “Fold change” value came out at 1.5 fold.

B23: RA134 (nucleic acid)
DNA: GCGCGTCCTGGATTCGCGGAAACGCGTACATCCAGCTGACGAGTCGGAATACCAGCATCGTCTTGATGCCCTTGGAAGTCCGCCCAAATAGGACGAAACGCGC
modifications: expressed or natural sequence
Turning to B23, the “Fold change” value was determined as 1.4 fold.

B24: RA012 (nucleic acid)
DNA: GCGCGTCCTGGATTCGCGGAAACAGAATACCAGCATCGTCTTGATGCCCTTGGAAGTCTGCGTACATCCAGCTGACGAGTCCCAAATAGGACGAAACGCGC
modifications: expressed or natural sequence
For the molecule B24, the “Fold change” value came out at 3.4 fold.

B25: RA013 (nucleic acid)
DNA: GCGCGTCCTGGATTCGCGGAAACGCGTACATCCAGCTGACGAGTCCCAAATAGGACGAAACGAGAATACCAGCATCGTCTTGATGCCCTTGGAAGTCTCGC
modifications: expressed or natural sequence
With B25, the “Fold change” value was 3.3 fold.

B26: RA139 (nucleic acid)
DNA: GGAGAATACCAGCATCGTCTTGATGCCCTTGGAAGTCTCCGCGTCCTGGATTCGCGGAAACGCGTACATCCAGCTGACGAGTCCCAAATAGGACGAAACGCGC
modifications: expressed or natural sequence
With B26, the “Fold change” value came out at 1.4 fold.

B27: RA130 (nucleic acid)
DNA: GCGCGTCCTGGATTCGCGGAAACGCGTACATCCAGCTGAGAATACCAGCATCGTCTTGATGCCCTTGGAAGTCTCGACGAGTCCCAAATAGGACGAAACGCGC
modifications: expressed or natural sequence
B27: the “Fold change” value is recorded as 1.4 fold.

B28: RA118 (nucleic acid)
DNA: GCGCGTCCTGGATTCGCGGAAACGCGTACATCCAGCTGACGAGTCCCAAATAGGACGAGAGAATACCAGCATCGTCTTGATGCCCTTGGAAGTCTCAACGCGC
modifications: expressed or natural sequence
B28: the “Fold change” value turned out to be 1.5 fold.

The values are drawn from patent US20260167959A1, “APTAZYME-BASED REGULATABLE GENE EXPRESSION SYSTEMS” (REJUVENATE BIO INC, priority 2022, published 2026).
